In patent US20170000909A1, “ENZYME DIRECTED ASSEMBLY OF PARTICLE THERANOSTICS” (The Regents of the University of California, priority 2011, published 2017):
Where no end group is shown, it is not given here.

Biological target: T1, MMP-9 (Homo sapiens, UniProt P14780)
T1 construct: purchased Calbiochem
Assay: MMP-9 cleavage efficiency assay (RP-HPLC)
Format: biochemical
Conditions: 120 μM, MMP-9 24 hrs, disappearance of peak at 29 minutes
Experimental: To 5 μL of enzyme was added 0.4 μL of a 24 mM π-aminophenyl mercuric acetate solution in freshly prepared 0.1 M NaOH. The enzyme solution was heated at 37° C. for 2 hrs prior to use.
120 μM of M1 (with respect to peptide) and 120 μM of Peptide-1 were treated with MMP-9 (100 μU, 1.25 μL) for 24 hrs. The control was performed using 120 μM of Peptide-1 without treatment with MMP-9. These samples were then analyzed by RP-HPLC following inactivation of MMP-9 at 65° C. for 20 mins (FIG. 21A). Peak A is the intact, full length Peptide-1 without treatment with MMP-9, and Peak B is the large fragment of Peptide-1 cleaved by MMP-9 as confirmed by MALDI-MS shown in FIG. 21B, left.

T1 sequence (P14780 107-707 limits assumed): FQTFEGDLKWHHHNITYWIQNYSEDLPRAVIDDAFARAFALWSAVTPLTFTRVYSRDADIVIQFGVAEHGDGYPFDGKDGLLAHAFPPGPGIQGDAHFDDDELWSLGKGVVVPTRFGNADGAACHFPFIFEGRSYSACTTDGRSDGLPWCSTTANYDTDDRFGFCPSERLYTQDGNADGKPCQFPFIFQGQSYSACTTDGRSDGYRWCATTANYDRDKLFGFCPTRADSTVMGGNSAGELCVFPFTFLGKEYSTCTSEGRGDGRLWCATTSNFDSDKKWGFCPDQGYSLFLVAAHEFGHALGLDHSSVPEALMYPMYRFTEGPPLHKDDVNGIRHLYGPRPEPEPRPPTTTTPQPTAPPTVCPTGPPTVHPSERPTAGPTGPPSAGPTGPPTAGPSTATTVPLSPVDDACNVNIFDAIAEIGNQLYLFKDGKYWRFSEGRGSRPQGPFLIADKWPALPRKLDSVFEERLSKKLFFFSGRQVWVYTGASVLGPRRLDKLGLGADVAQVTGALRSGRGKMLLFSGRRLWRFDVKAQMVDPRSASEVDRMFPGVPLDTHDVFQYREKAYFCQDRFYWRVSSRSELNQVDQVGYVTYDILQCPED

Q: For GPLGLAGKWAAAAKAAAAK [Peptide-1], which “MMP-9 cleavage efficiency” value is on record?
A: quantitative
